Test: yeast display, Sf9 membrane polyspecificity reagent, FACS + sequencing; frameworks hold sequencing errors
Procedure, shortened: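 Nanobodies came from a synthetic yeast display library in Saccharomyces cerevisiae BJ5465, induced with galactose for 36–48 hours and stained for 1 hour at 4 °C with 10% biotinylated, detergent-solubilized Sf9 membrane reagent. Cells were enriched on streptavidin microbeads and then FACS-sorted, with low and high (top ~1%) gates set on anti-HA fluorescence for expression and streptavidin fluorescence for reagent binding. Each polyreactivity label reflects the gate a clone came from. Genes were amplified by colony PCR, sequenced by MiSeq 2 × 250 and filtered by CDR length.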

Row | Sequence | polyreactivity (PSR sort gate)
1 | QVQLVETGGGLVQAGGSLGLSFAASGFIFSYYLMGWYRQAPGKERELVAAITTSGDSTYYADSVKGRFTISSDNAKNTVYLQINRLKPEDSAVYYCAADNYYETIWHYGYWGQGTQVTVSS | high polyreactivity
2 | QVQLVESGGGIVQAGGSLRLSCAASGSTFATYTMGWYRQAPGKERELVAAISSRGGSTYYADSVKGRFTISRDNAKNTVYLQMNSLKPEDTAVYYCNARRSTDPARYYWGQGSQVTVSS | high polyreactivity
3 | QVQLVESGGGLVQAGGSLRLSCAASGFTFSKYTMGWYRQAPGKERELVAAITSGGSTYYADSVKGRFTISRDNAKNTVYLQMNSLKPEDTAVYYCNAESRHVFEDEYWGQGTQVTVSS | low polyreactivity
4 | QVQLVESWGGLVQAGGSLRLSCAASGIIFRYYAIGWYRKAPGKERELVAAISRSGARTYYADSVKGRFTISRDNAKNTVYLQMNSLKPEDTAVYYCATEPTSGRFYYWGQGTQVTVSS | high polyreactivity
5 | HVQLVESGGGLVQAGGSLRLSCAASGRIFYYNAMGWYRQAPGKERELVAVITWRGGTTYYADSVKGRFTTSRDTAKNTVYLQMNSLKPEDTAVYYCAADTGAFDGYYRQPRIRFDYWGQGTQVTVSS | high polyreactivity
6 | QVQLVESGGGLVQAGGSLRLSCAASGGTFGRNAMGWYRQAPGKERELVATITRRGGSTYYADSVKGRFTISRDNAKNTVYLQMNSLKPEDTAVYYCAAAGRYSNGTGYGYWGQGTQVTVSS | high polyreactivity
7 | QVQLVESGGGLVQAGGSLRLSCAASGRTFLGYTMGWYRQAPGKERELVAAITSGGSTYYADSVKGRFTISRDNAKNPVYLQMNSLKPEDTAVYYCARGYFEQVQYWYDNEYDFWGQGTQVTGSS | low polyreactivity
8 | QVQLVESGGGLVQAGGSLRLSCAASGRTFTGSVMGWYRKAPGKERELVAAISWNGGRTYYADSVKGRFTLSRDNAKNTVYLQMYSLKPEDTGVYLCGTYGYNSYDYWGHGTQVTVSS | high polyreactivity
9 | QVQLVESGGGLVQAGGSLRLSCAASGIIYGNVMGWYRQAPGKESELVAAITGSGGSTYYADSVKGRFTISRDNAKNTVYLQMNSLKPEDTAVYYCAADLALYNTLYLTLPDYYWGEGTQVTVSS | low polyreactivity
10 | QVQLVESGGGLVQAGGSLRLSCAASGSIFPFNAMGWYRQAPGKERELVAAISRRGTGTYYADSVKGRFTISRDNAKNTVYLQMNSLKPEDTAVYYCNAVVRAGHYDYWGQGTQVTVSS | high polyreactivity
11 | QVQLEESGGGLVQAGGSLRLSCAASGSTFKTYASGWYRQAPGKERELVAAISWSGGSTYYAESVKGRFTISRDNAKNTVYLQMNSLKPEDTAVYYCNAGWGYPSPWFIGEYWGQGTQVTVSS | low polyreactivity
12 | QVQLVESGAGLVQAGGSLRLSCAASGSIFDVNAMGWYRQAPGKERELVAAISQRGTRTYYADSVKGRFTISRDNAKNTVYLQMNRLKPEDTAVYYFNRGGWRKYDSWGQGTQVTVSS | high polyreactivity
13 | QVQLVESGGGLVQAGGSLRLSCAASGRTFNGYAMGWYRQAPGKERELVASISRDGSTNYADSVKGRFTISRDNAKNTVYLQMNSLKPEDTAVYYCAADIWYYRYPIYYYSYDYWGQGTQVTVSS | low polyreactivity
14 | QVQLVESGGGLVQAGGSLRLSCAASGRTFYRNAMGWYRQATGKEREFVAVISVSGGSTYYADSVKGRFTISRDYAKNTVYLQMNSLKPEDTAVYYCGKRGPVRKTAYEYWGQGTQVTVSS | low polyreactivity
15 | QVQLVESGGGLVQSGGSLRLSCAASGSIFSYYAMGWYRQAPGKEREFVAPHSRSGGSTYYADSVKGRFTISRDNGKNTVYLQMKSLKPEDTAVYYCNAYSYSDAGDDGDYWGQGTQVTVSS | low polyreactivity
16 | QVQLVESGGGLVQAGGSLRLSCAASGITFRGYAMGWYRQAPGKERELVASITNTDSTYYADSVKGRFTISRDNAKNTVYLQMNSLKPEDTAVYYCNAEADPYSVDYDYWGQGTQVTVSS | high polyreactivity
17 | QVQLVESGGGLAQAGGSLRLSCAASGSTFNSNAMGWSRQAPGKERELVAAISRSGGRTYYADSVKGRFTISRDIAKNTVYLQMNSLKPEDTAVYYCAAGCQYISRRGYDYWGQGTQVTVSS | high polyreactivity
18 | QVQLVESGGRLVQAGGSLRLSCAASGGIFPPNAKGWYRQAPGKERELVASISSDGSTNYADSVKGRFTISRDNAKNTVYLQMNSLKPEDTAVYYCAADSTTSWARLHVRRFYYWGQGTQVTVSS | low polyreactivity
19 | QVQLVESGGGLVQAGGSLRLSCAASGRTFVPYAMGRYRQAPGKERELVAAISARGSSTYYADSVKGRFTISRDNAKNTVYLQMNSLKPEDTAVYYCNAVGARVASATGMEYWGQGTQVTVSS | high polyreactivity
20 | QVQLVESGGGLVQAGGSLRISSAASGLTFYRYAIGWYRQAPGKERELVAAIRSNVVTTYYADSVKGRFTISRDNAKNTVYLKMNSLKPEDTAVYYCAARFGRSAPPGYDYWGQGTQVTVSS | high polyreactivity
21 | QVQLVESGGGLVQAGGSLRLSCAASGSTFYTYAMGWYRQAPGKERELVAAITSSGTTNYADSVKGRFTISRDNAKNTVYLQMNSLKPEDTAVYYCAKRSYGGTLHYAFDSWGQGTQVTVSS | low polyreactivity
22 | QVQLVESGGGLVQAGGSLRLSCAASGFIFITVNAMGWYRQAPGKEREFVAAITRSGTGTYYADSVKGRFTISRDNAKNTVYLQMNSLKPEDTAVYYCAAEWSEESDYWGQGTQVTVSS | low polyreactivity

Row | Sequence | polyreactivity (PSR sort gate)
23 | QVQLVESVGGLVQAGGSLPLSCDASGSIFFYYAMGWSRHAPGKESELVAAIDFNGGTTYYADSVKGRFTISRDTAKITVYLQMNSLTPEDTAVYYCAAEWEGTYSTVPDEFNYWGQGTQVTVSS | high polyreactivity
24 | QVQLVESGGGLVQAGGSLRLSCAASGFIFWENAMGWSRQAPGKERELVAAISKSGTRTYYADSVKGRFTISRDNAKNTVYLQMNSLKPEDTAVYYCAAEGSGYEYYYWGQGTQVTVSS | high polyreactivity
25 | QVQLVESGGGLVQAGGSLRLSCAASGRIFGWYAMGWYRQAPGKERELVAAIRWSGGSTYADSVKGRFTISRDNAKNTVYLQMNSLKPEDTAVYYCAATYGSYRGVRYYWGQGTQVTVSS | high polyreactivity
26 | QVQLEESGGGLVQAGGSLRLSSAASGGTFRPYAMGWYRQAPGKERELVATIRSSGGRTYYADSVKGRFTISRDNAKNTVYLQMTSLKPEDTAVYYCAKRAQTYYGYDYWGQGTQVTVSS | high polyreactivity
27 | QVQLVESGGGLVQAGGSLRLSCAASGLTFPSNAMGWYRQAPGKERELVAAISKRGGRTYYADSVKGRFTISRDNAKNTVYLQINSLKPEDTAVYYCAAVPWYVSHDFDYWGQGTQVTVSS | high polyreactivity
28 | QVQLVESGGGLVQAGGSLRLSCAASGRTFKYYAMGWYRQAPGKERELVATINYSGGGTNYADSVKGRYTISRDNATNTVSLQMNSLKPDDTAVYYCAARWLWRIPYDYWGEGTQVTVSS | high polyreactivity
29 | QGQLVETGGGLVQAGGSLRLSCAASGRIFDDNAMGWYRQAPGKERELVASITVSTGSTYYADSVKGRFTISRDNAKNTVYLKMNSLKPEDTAVYYCAKDNSLPDYDYWGQGSQVTVSS | low polyreactivity
30 | QVQLVESAVGLVQAGGSLRLSCDASGRSYYTYAMGWYRQAPGKERELVATITDGGSTYYAESVKGRFTISRDNAKNTVYLQMNSLKPEDTAVYYCAADAYQWYDWGQGTQVTVSS | low polyreactivity
31 | QVQLVESCGALVQASGTLRLSCAASGSIFGYNTMRWYRQAPGKERELVAAIYYSGGRTYYADSVKGRFTISRDNAKNTVYLQMNSLKPEDTAVYNCAARKGYRYYYRGQGTQVTVSS | high polyreactivity
32 | QVQLEESGGGLVQAGGSLRLSCAASGILRDNAMGWYRQAPGKERELVATINGDGSTYADSVKGRFTISRDNAKNTVYLQMNSLKPEDTAVYYCAAPFTTTFDYWGQGTQVTVSS | low polyreactivity
33 | QVQLVESGGGLVQAGGSLRLSCAASGSIFSTYVMGWYRPAPGKERELVAAIRWRATSTFYADSVKGRFTISRDNAKNTVYLQMNSLKPEDTAVYYCNRYHRTSWRAKYDYWGQGTQVTVSS | high polyreactivity
34 | QVQLVESGGGLVQAGGSLRLSCAASGSTSTGNAMGWYRKAPGKERELVAAITSGGNTYYADSVKGRFTISRDNAKNTVYLQMNSLKPEDTAVYYCAAASPGPWRYDYWGQGTQVTVSS | high polyreactivity
35 | QVQLVESGVGLVQAGGSLRVSCAASGRTFRYYAMGWYREAPGKERELVAAISSGTRTNYADSVTGRFTISRDNAKNTVYLQMNSLKPEDTAVYYCNAVTRRSAQGGHDYWGQGTQVTVSS | high polyreactivity
36 | QVQIVESGGGLVQAGGSLRLSCAASGFIFYFYAMGWYRQAPGKERELVATITRRDDSTYYADSVKGRFTISRDNAKNTVYLQMNSLKPEDTAVYYCNADFWLLSEYDYWGQGTQVTVSS | low polyreactivity
37 | QVQLVESGGGLVQAGGSLRLTCAASAFTFKLYVMGWYRHATGKERQFDAGITKRGGRTYYADSVKGRFTISRDNAKNTFYLQMNSLKPEDTAVYYCSAGTRIYNSCIRFDYWGQGTQVTVSS | high polyreactivity
38 | QVQLVESGGGLVQAGGSLRLSCAASGGIFRYYAMGWYRQAPGKERELVAAISKSGGRTYYADSVKGRFTISRDNAKNTVYLQMNSLKPEDTAVYYCAADLYPFSRNTRYQFLYNYWGQGTQVTVSS | low polyreactivity
39 | QVQLVESGGGLVQAGGSLRLSCAASGSTSVTNAMGWYRQAPGKEREFFATINYSGTSTYYADSVKGRFTISRDNAKNTVYLQMNSLNPEDTAVYYCYAHDFGFYRFSLPGYDYWGQGTQVTVSS | low polyreactivity
40 | QVQLVESGGGLVQAGGSLRLSCAASGIIFDTNAMGGYRQAPGKERELVATITQRGGTTYYADSVKGRFTISRDNEKYTVYLQMNSLKPEDTAVYYCNAGPVRLPYDSWGQGTQVTVSS | low polyreactivity
41 | QVQLVESGGGLVQAGGSLRLSCAASGRIFWRYAMGWYRQAPGKERELVAGISASGGSTFYADSVKGRFTISRDNAKNTVYLQMNSLKPEDTAVYYCAAVSRYIWYSARESYYWGQGTQVTVSS | high polyreactivity
42 | QVQLQESGGGLVQAGGSLRLSCAASGTITVLYKMGWFRQAPGKEREFVASMNYGTSTYYADSVKGRFTVSRDSAKNTVYLQMNSLKPEDTAVYYCAAAYRWQDVYRYWGQGTQVTVSS | low polyreactivity
43 | QFQLVESGGGLVQAGGSLRLSCASSGSIFYGNAMVCYRQAPGKERELVADIRWSGGSTYYADSVKGRFTISRDNAKNTVYLQMNSLKPEDTAVYYCAVRSPYRWRYASRYHEYDYWGQGTQVTVSS | low polyreactivity
